Laboratory results published in the supplement of paper PMC9732359.
± gives the uncertainty stated by the source.

Assay: protein stability index of a GFP-peptide fusion (yeast GPS) (PSI 1-4); higher = more stable; sorted into four equal gates, so the index is relative within each strain
Summary of the method: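 For each peptide, the protein stability index sums the read frequency in every gate after multiplying it by the gate number. Read frequencies came from plasmids that were PCR-amplified from each gate and Illumina-sequenced, with reads assigned to strains by barcodes. The gates were four equal bins of GFP/Cherry fluorescence ratio applied to mid-log yeast in leucine-free medium carrying a pooled library of tiled 17-residue yeast protein peptides fused downstream of GFP on a Cherry-expressing plasmid.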

Question: For YLEENKSDSQYRFYEYI [MED1], which protein stability index (doa10∆) is on record?
Answer: 3.04 ± 0.063

Question: And the protein stability index (pdr5∆)?
Answer: 3.06 ± 0.062

Question: What about the protein stability index (san1∆) of the same sequence?
Answer: 3.12 ± 0.069

Question: What about the protein stability index (ubr1∆) of the same sequence?
Answer: 3.13 ± 0.086

Question: For VVLFNRQPSLHRLSILS [RPO31], which protein stability index (doa10∆) is on record?
Answer: 1.65 ± 0.054

Question: What about the protein stability index (pdr5∆) of the same sequence?
Answer: 1.88 ± 0.053

Question: And the protein stability index (san1∆)?
Answer: 1.44 ± 0.096

Question: And the protein stability index (ubr1∆)?
Answer: 1.63 ± 0.047

Question: Which protein stability index (doa10∆) does the source give for KAGKVAVVVRGRYAGKK [RPL27A] here?
Answer: 2.19 ± 0.083

Question: And the protein stability index (pdr5∆)?
Answer: 2.17 ± 0.053

Question: And the protein stability index (san1∆)?
Answer: 2.19 ± 0.097

Question: What about the protein stability index (ubr1∆) of the same sequence?
Answer: 1.78 ± 0.086

Question: For LQEKISTELNNKQYELF [SWI1], which protein stability index (doa10∆) is on record?
Answer: 2.51 ± 0.077

Question: What about the protein stability index (pdr5∆) of the same sequence?
Answer: 2.74 ± 0.072

Question: What about the protein stability index (san1∆) of the same sequence?
Answer: 2.52 ± 0.062

Question: And the protein stability index (ubr1∆)?
Answer: 2.77 ± 0.059

Question: Which protein stability index (doa10∆) does the source give for MANIPERIINVGVIGPL [SNU114] here?
Answer: 2.18 ± 0.28

Question: What about the protein stability index (pdr5∆) of the same sequence?
Answer: 2.79 ± 0.16

Question: And the protein stability index (ubr1∆)?
Answer: 3.07 ± 0.077

Question: With FFTIDHFIQKLHTARKI [SIR2] as the sequence, how does the protein stability index (doa10∆) read?
Answer: 1.75 ± 0.09

Question: And the protein stability index (pdr5∆)?
Answer: 1.71 ± 0.1

Question: What about the protein stability index (san1∆) of the same sequence?
Answer: 1.11 ± 0.12

Question: What about the protein stability index (ubr1∆) of the same sequence?
Answer: 1.37 ± 0.12

Question: Which protein stability index (san1∆) does the source give for VQDIIGNGKLSEHFLYL [RPN1] here?
Answer: 3.29 ± 0.26

Question: With KAFKNNSSKYYINEKES [SMC4] as the sequence, how does the protein stability index (doa10∆) read?
Answer: 2.54 ± 0.12

Question: And the protein stability index (pdr5∆)?
Answer: 2.42 ± 0.07

Question: And the protein stability index (san1∆)?
Answer: 2.27 ± 0.083

Question: What about the protein stability index (ubr1∆) of the same sequence?
Answer: 1.72 ± 0.064

Question: With LVSEKIINSTALMKEKD [RPC82] as the sequence, how does the protein stability index (doa10∆) read?
Answer: 3.19 ± 0.17

Question: What about the protein stability index (pdr5∆) of the same sequence?
Answer: 3.11 ± 0.081

Question: And the protein stability index (san1∆)?
Answer: 3.11 ± 0.084

Question: And the protein stability index (ubr1∆)?
Answer: 3.27 ± 0.092

Question: Which protein stability index (doa10∆) does the source give for SLRTPIAPKITPKVVRS [SEC65] here?
Answer: 3.16 ± 0.093

Question: And the protein stability index (pdr5∆)?
Answer: 3.05 ± 0.063

Question: And the protein stability index (san1∆)?
Answer: 2.87 ± 0.1

Question: And the protein stability index (ubr1∆)?
Answer: 3.17 ± 0.059

Question: For NGQRSNSIRAREVENSV [SMC1], which protein stability index (doa10∆) is on record?
Answer: 3.31 ± 0.075

Question: What about the protein stability index (pdr5∆) of the same sequence?
Answer: 3.37 ± 0.058

Question: And the protein stability index (san1∆)?
Answer: 3.36 ± 0.048

Question: And the protein stability index (ubr1∆)?
Answer: 3.19 ± 0.072

Question: Which results are given for KIFVETKFSKLIGRPPL [FAS1]?
Answer: protein stability index (doa10∆): 1.97 ± 0.29; protein stability index (pdr5∆): 2.54 ± 0.093; protein stability index (san1∆): 2.35 ± 0.11; protein stability index (ubr1∆): 1.79 ± 0.059

Question: With KYYIVSSSKSMINDENY [SRB8] as the sequence, how does the protein stability index (doa10∆) read?
Answer: 2.91 ± 0.073

Question: And the protein stability index (pdr5∆)?
Answer: 2.76 ± 0.056

Question: And the protein stability index (san1∆)?
Answer: 2.43 ± 0.083

Question: And the protein stability index (ubr1∆)?
Answer: 2.81 ± 0.04

Question: With AINPGRVAASFSQEALQ [FAS1] as the sequence, how does the protein stability index (doa10∆) read?
Answer: 2.05 ± 0.15

Question: What about the protein stability index (pdr5∆) of the same sequence?
Answer: 2.53 ± 0.15

Question: And the protein stability index (san1∆)?
Answer: 2.63 ± 0.13

Question: What about the protein stability index (ubr1∆) of the same sequence?
Answer: 1.98 ± 0.098

Question: For TINISLSFSWAILLIIN [NUT1], which protein stability index (doa10∆) is on record?
Answer: 1.35 ± 0.06

Question: What about the protein stability index (pdr5∆) of the same sequence?
Answer: 1.61 ± 0.054

Question: What about the protein stability index (san1∆) of the same sequence?
Answer: 1.93 ± 0.078

Question: What about the protein stability index (ubr1∆) of the same sequence?
Answer: 2.43 ± 0.044

Question: With DPQDVFNYNIFMHDPSV [SIR2] as the sequence, how does the protein stability index (doa10∆) read?
Answer: 2.66 ± 0.08

Question: What about the protein stability index (pdr5∆) of the same sequence?
Answer: 2.02 ± 0.074

Question: And the protein stability index (san1∆)?
Answer: 1.35 ± 0.12

Question: And the protein stability index (ubr1∆)?
Answer: 2.69 ± 0.089

Question: Which protein stability index (doa10∆) does the source give for GQSTILVGSEIYEKLKN [CDC53] here?
Answer: 2.67 ± 0.14

Question: And the protein stability index (pdr5∆)?
Answer: 3.12 ± 0.15

Question: What about the protein stability index (san1∆) of the same sequence?
Answer: 1.36 ± 0.21

Question: What about the protein stability index (ubr1∆) of the same sequence?
Answer: 1.96 ± 0.077

Question: Which protein stability index (doa10∆) does the source give for KYPMYMQLEEELMKLDG [MED6] here?
Answer: 2.14 ± 0.091

Question: And the protein stability index (pdr5∆)?
Answer: 1.44 ± 0.084

Question: What about the protein stability index (san1∆) of the same sequence?
Answer: 1.39 ± 0.16

Question: And the protein stability index (ubr1∆)?
Answer: 1.36 ± 0.06

Question: Which protein stability index (doa10∆) does the source give for LADSLDRCVDPEDPYFN [DIS3] here?
Answer: 3.05 ± 0.095

Question: And the protein stability index (pdr5∆)?
Answer: 2.64 ± 0.079

Question: And the protein stability index (san1∆)?
Answer: 3.35 ± 0.076

Question: What about the protein stability index (ubr1∆) of the same sequence?
Answer: 3.4 ± 0.059

Question: What does the source list for QGMEGTVDLALFGSPPF [YMR129W/POM152]?
Answer: protein stability index (doa10∆): 3.39 ± 0.079; protein stability index (pdr5∆): 3.41 ± 0.068; protein stability index (san1∆): 3.35 ± 0.076; protein stability index (ubr1∆): 3.21 ± 0.047

Question: What does the source list for LNTFGSKICLSHFSLDQ [ITC1]?
Answer: protein stability index (doa10∆): 2.48 ± 0.06; protein stability index (pdr5∆): 2.18 ± 0.042; protein stability index (san1∆): 2.09 ± 0.095; protein stability index (ubr1∆): 2.33 ± 0.039

Question: For EKTGKSASLKKIQQHNT [BRR2], which protein stability index (pdr5∆) is on record?
Answer: 2.96 ± 0.2

Question: With LQRHLSLGIRPCLRKYE [RRP43] as the sequence, how does the protein stability index (doa10∆) read?
Answer: 2.61 ± 0.061

Question: And the protein stability index (pdr5∆)?
Answer: 2.66 ± 0.063

Question: What about the protein stability index (san1∆) of the same sequence?
Answer: 2.82 ± 0.075

Question: And the protein stability index (ubr1∆)?
Answer: 3.08 ± 0.053

Question: For CFICLLHLANEHGLQIT [BRN1], which protein stability index (doa10∆) is on record?
Answer: 2.54 ± 0.12

Question: And the protein stability index (pdr5∆)?
Answer: 2.81 ± 0.17

Question: What about the protein stability index (san1∆) of the same sequence?
Answer: 2.61 ± 0.17

Question: What about the protein stability index (ubr1∆) of the same sequence?
Answer: 2.87 ± 0.087

Question: Which protein stability index (doa10∆) does the source give for QEQLKQMDQQLQYTALT [ARP7] here?
Answer: 2.71 ± 0.16

Question: And the protein stability index (pdr5∆)?
Answer: 2.67 ± 0.25

Question: And the protein stability index (san1∆)?
Answer: 2.55 ± 0.2

Question: What about the protein stability index (ubr1∆) of the same sequence?
Answer: 3 ± 0.18

Question: For AASWYGSFNEMKRNCGQ [RMP1], which protein stability index (doa10∆) is on record?
Answer: 2.92 ± 0.051

Question: And the protein stability index (pdr5∆)?
Answer: 3.3 ± 0.054

Question: What about the protein stability index (san1∆) of the same sequence?
Answer: 3.06 ± 0.052

Question: And the protein stability index (ubr1∆)?
Answer: 3.21 ± 0.045

Question: With DLKSLNVRDDMKPSDNI [SSN2] as the sequence, how does the protein stability index (doa10∆) read?
Answer: 2.94 ± 0.22

Question: And the protein stability index (pdr5∆)?
Answer: 2.59 ± 0.18

Question: What about the protein stability index (san1∆) of the same sequence?
Answer: 2.62 ± 0.16

Question: And the protein stability index (ubr1∆)?
Answer: 2.57 ± 0.097
